Experimental data: patent publication US20130130315A1 (ADVANCECOR, published 2013)
Positions count from the first letter of the chain named. “And” between values parts separate entries of the source, which are not always exact repeats. Identical values can stand only once.

Legend:
bovine collagen I = molecular target: T1, bovine collagen I (bovine, UniProt P02453 162-1217; P02465 80-1117, limits assumed); assay: ELISA on immobilized bovine collagen I
T1 construct: also called immobilized collagen I; soluble collagen I
Procedure: Fc-protein was used as negative control.
An Immulon 2 HB 96-well plate (NUNC, Rochester, N.Y.) was coated with 0.1 ml 1 μg/ml bovine collagen I in 15 mM Na₂CO3, 35 mM NaHCO3, pH 9.6 o/n at 4° C. Wells were washed with PBS-T, blocked with 0.1 ml 1× RotiBlock (Roth, Karlsruhe, Germany) in PBS-T for one hour and washed again before addition of 0.1 ml of threefold dilutions of fusion protein. After one hour incubation at RT with shaking, wells were washed with PBS-T. Wells were incubated with 0.1 ml anti-human IgG-HRP (Dianova, Hamburg, Germany) 1:10000 in PBS-T for one hour at RT with shaking. The plate was washed with PBS-T and incubated with 0.1 ml 1-Step Ultra TMB-ELISA (PIERCE, Rockford, Ill.). After blue staining had developed sufficiently, reactions were stopped by addition of 0.1 ml 1 M H₂SO₄. Absorbance was measured at 450 nm and 595 nm as a reference wavelength using an infinite F200 plate reader (TECAN, Männedorf, Switzerland). EC₅₀ values were calculated with Sigma Plot 11 using Four Parameter Logistic.

CD133 protein [1] = molecular target: T2, CD133 protein (UniProt O43490 20-865, limits assumed); assay: cellular ELISA on fixed AC133/293 cells
T2 construct: whole, on cells; Presented on AC133/293 cells: paraformaldehyde-fixed in the cellular ELISA, unfixed in the phage FACS; also called CD133 antigen; AC133
T2 sequence (looked up): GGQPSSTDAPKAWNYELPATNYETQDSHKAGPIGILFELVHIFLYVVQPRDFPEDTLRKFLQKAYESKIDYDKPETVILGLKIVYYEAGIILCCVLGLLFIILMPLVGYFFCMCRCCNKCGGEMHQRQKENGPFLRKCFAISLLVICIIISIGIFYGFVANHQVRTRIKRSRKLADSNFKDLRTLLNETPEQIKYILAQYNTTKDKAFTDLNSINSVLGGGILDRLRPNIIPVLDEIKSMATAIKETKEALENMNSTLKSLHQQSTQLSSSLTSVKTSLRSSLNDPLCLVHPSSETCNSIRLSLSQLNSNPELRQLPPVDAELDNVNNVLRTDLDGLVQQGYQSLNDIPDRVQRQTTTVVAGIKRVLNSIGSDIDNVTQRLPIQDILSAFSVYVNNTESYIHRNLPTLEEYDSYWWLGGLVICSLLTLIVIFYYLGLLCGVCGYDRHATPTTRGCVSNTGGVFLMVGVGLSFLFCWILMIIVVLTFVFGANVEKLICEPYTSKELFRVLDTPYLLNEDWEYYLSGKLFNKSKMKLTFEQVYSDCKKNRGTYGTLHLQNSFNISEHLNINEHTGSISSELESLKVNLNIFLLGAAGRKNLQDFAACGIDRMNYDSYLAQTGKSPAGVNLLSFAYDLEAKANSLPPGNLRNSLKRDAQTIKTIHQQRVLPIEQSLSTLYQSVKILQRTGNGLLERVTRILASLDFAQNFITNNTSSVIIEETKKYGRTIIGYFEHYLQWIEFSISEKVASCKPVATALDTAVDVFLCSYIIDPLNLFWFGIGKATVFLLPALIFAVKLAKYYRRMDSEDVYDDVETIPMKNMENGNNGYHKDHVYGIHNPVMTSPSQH
Procedure: (§1) 1×10⁵ cells in 0.2 ml of medium were added to each well and incubated o/n at 37° C., 5% CO₂ to allow cells to attach to the surface of the plate. The next day wells were washed once with 0.2 ml PBS and fixed with 0.1 ml 2% Paraformaldehyde (in PBS, pH 7.4) for 10-20 min at RT. Wells were washed with PBS-T (PBS+0.1% Tween-20) and blocked with either 1× RotiBlock or 3% milk in PBS-T for 1 hour at RT. After washing with PBS-T, serial dilutions of the respective antibody were added to the wells and incubated at RT for at least one hour while shaking. After washing with PBS-T, 0.1 ml of StrepMAb-Classic-HRP (1:10000 in PBS-T, lba BioTagnology, Göttingen, Germany) or of horseradish peroxidase linked anti-mouse IgG (1:10000 in PBS-T, Dianova, Hamburg, Germany) was added and incubated at RT for one hour with shaking. After washing with PBS-T, 0.1 ml of 1-Step Ultra TMB-ELISA substrate (Thermo Scientific, Braunschweig, Germany) was added and incubated until an adequate blue staining developed. To stop the reaction 0.1 ml 1 M H₂SO₄ was added to each well and absorbance at 450 nm and 595 nm as a reference was measured with an infinite F200 plate reader (TECAN, Männedorf, Switzerland). […] Signals were detected using an anti-mouse IgG-HRP antibody (1:10000 in PBS-T, Dianova, Hamburg, Germany). […]

CD133 protein [2] = molecular target: T2, CD133 protein; assay: competition cellular ELISA on fixed AC133/293 cells; competitor of 2 nM W6B3H10 mAb
Procedure: 1×10⁵ cells in 0.2 ml of medium were added to each well and incubated o/n at 37° C., 5% CO₂ to allow cells to attach to the surface of the plate. The next day wells were washed once with 0.2 ml PBS and fixed with 0.1 ml 2% Paraformaldehyde (in PBS, pH 7.4) for 10-20 min at RT. Wells were washed with PBS-T (PBS+0.1% Tween-20) and blocked with either 1× RotiBlock or 3% milk in PBS-T for 1 hour at RT. After washing with PBS-T, serial dilutions of the respective antibody were added to the wells and incubated at RT for at least one hour while shaking. After washing with PBS-T, 0.1 ml of StrepMAb-Classic-HRP (1:10000 in PBS-T, lba BioTagnology, Göttingen, Germany) or of horseradish peroxidase linked anti-mouse IgG (1:10000 in PBS-T, Dianova, Hamburg, Germany) was added and incubated at RT for one hour with shaking. After washing with PBS-T, 0.1 ml of 1-Step Ultra TMB-ELISA substrate (Thermo Scientific, Braunschweig, Germany) was added and incubated until an adequate blue staining developed. To stop the reaction 0.1 ml 1 M H₂SO₄ was added to each well and absorbance at 450 nm and 595 nm as a reference was measured with an infinite F200 plate reader (TECAN, Männedorf, Switzerland). […] Signals were detected using an anti-mouse IgG-HRP antibody (1:10000 in PBS-T, Dianova, Hamburg, Germany).

CD133 protein [3] = molecular target: T3, CD133 protein (UniProt O43490 20-865); assay: FACS; panel A, Median FI
T3 chain: T2 sequence (looked up)

CD133 protein [4] = molecular target: T3, CD133 protein; assay: FACS; panel A, Geo-Mean FI
CD133 protein [5] = molecular target: T2, CD133 protein; assay: FACS of phage dilution series on AC133/293 cells, mean fluorescence index
CD133 protein [6] = molecular target: T2, CD133 protein; assay: FACS of phage dilution series on AC133/293 cells
CD133 protein [7] = molecular target: T2, CD133 protein; assay: competitive cellular ELISA on fixed AC133/293 cells; competitor of 2 nM W6B3H10 mAb
Procedure: as §1

T1 sequence (P02453 162-1217 limits assumed, chain 1 of 2): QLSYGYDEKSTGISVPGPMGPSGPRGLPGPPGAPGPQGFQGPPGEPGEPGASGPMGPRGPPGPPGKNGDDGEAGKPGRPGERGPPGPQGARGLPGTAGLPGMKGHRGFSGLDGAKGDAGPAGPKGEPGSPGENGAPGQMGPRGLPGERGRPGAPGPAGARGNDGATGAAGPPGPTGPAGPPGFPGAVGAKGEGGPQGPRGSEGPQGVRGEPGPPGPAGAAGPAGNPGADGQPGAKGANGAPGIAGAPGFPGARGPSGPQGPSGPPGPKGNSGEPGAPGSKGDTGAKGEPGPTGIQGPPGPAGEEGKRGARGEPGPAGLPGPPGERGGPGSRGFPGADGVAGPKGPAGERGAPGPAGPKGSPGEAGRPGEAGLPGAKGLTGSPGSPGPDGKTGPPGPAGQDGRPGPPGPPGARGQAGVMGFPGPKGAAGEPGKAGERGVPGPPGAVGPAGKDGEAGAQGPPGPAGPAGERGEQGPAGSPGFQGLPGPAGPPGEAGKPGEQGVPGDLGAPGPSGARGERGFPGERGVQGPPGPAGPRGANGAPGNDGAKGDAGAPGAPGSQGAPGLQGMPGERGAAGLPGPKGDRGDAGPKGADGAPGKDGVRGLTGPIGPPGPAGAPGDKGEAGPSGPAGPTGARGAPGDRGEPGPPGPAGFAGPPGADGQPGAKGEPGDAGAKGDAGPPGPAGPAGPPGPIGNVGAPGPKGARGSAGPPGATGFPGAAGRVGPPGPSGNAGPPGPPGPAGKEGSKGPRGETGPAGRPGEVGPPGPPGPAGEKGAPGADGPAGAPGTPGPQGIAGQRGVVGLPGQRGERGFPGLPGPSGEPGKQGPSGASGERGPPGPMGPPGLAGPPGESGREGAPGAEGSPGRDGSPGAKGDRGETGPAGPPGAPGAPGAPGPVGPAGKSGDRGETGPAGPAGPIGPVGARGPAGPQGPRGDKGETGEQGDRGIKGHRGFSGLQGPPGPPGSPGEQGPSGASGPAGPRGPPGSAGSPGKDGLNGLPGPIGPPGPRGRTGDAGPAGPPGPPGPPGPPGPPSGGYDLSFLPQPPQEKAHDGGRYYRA
T1 sequence (P02465 80-1117 limits assumed, chain 2 of 2): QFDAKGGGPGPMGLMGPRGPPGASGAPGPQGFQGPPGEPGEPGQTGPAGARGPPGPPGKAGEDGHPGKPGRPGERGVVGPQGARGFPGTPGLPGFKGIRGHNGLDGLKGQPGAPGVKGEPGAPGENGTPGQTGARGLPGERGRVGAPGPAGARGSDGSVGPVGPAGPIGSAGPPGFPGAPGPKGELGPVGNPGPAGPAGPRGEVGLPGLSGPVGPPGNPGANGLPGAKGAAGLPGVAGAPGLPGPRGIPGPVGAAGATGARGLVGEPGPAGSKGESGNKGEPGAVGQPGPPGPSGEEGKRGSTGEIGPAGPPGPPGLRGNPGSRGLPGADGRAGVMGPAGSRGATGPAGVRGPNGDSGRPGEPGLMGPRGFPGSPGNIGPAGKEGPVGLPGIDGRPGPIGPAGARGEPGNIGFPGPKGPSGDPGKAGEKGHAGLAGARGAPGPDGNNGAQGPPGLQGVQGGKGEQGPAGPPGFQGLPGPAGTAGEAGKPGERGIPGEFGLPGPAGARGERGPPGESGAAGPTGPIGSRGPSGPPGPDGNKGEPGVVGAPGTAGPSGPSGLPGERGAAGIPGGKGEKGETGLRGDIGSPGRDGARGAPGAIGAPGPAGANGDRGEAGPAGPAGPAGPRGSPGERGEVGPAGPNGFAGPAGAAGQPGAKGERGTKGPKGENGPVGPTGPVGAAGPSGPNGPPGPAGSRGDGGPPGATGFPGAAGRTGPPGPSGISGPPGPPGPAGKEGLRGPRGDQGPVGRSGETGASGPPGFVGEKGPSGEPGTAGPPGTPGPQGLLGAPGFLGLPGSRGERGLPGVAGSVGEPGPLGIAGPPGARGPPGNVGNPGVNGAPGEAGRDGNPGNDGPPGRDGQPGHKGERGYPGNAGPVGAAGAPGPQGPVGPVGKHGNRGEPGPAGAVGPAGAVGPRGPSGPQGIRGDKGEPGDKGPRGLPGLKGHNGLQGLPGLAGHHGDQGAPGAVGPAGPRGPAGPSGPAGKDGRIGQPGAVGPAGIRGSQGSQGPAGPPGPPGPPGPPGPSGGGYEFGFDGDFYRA

B1: fusion protein scFv-lh-GPVI-FcIgG2 (Fc fusion)
chain: DILMTQSPKSMSMSLGERVTLSCKASENVDTYVSWYQQKPEQSPKVLIYGASNRYTGVPDRFTGSGSATDFSLTISNVQAEDLADYHCGQSYRYPLTFGAGTKLELKGGGGSGGGGSGGGGSEVQLQQSGPDLMKPGASVKISCKASGYSFTNYYVHWVKQSLDKSLEWIGYVDPFNGDFNYNQKFKDKATLTVDKSSSTAYMHLSSLTSEDSAVYYCARGGLDWYDTSYWYFDVWGAGTAVTVSSQSGPLPKPSLQALPSSLVPLEKPVTLRCQGPPGVDLYRLEKLSSSRYQDQAVLFIPAMKRSLAGRYRCSYQNGSLWSLPSDQLELVATGVFAKPSLSAQPGPAVSSGGDVTLQCQTRYGFDQFALYKEGDPAPYKNPERWYRASFPIITVTAAHSGTYRCYSFSSRDPYLWSAPSDPLELVVTGTSVTPSRLPTEPPSSVAEFSEATAELTVSFTNKVFTTETSRSITTSPKESDSPAGPARQYYTKGNGGRVECPPCPAPPVAGPSVFLFPPKPKDTLMISRTPEVTCVVVDVSHEDPEVQFNWYVDGVEVHNAKTKPREEQFNSTFRVVSVLTVVHQDWLNGKEYKCKVSNKGLPAPIEKTISKTKGQPREPQVYTLPPSREEMTKNQVSLTCLVKGFYPSDIAVEWESNGQPENNYKTTPPMLDSDGSFFLYSKLTVDKSRWQQGNVFSCSVMHEALHNHYTQKSLSLSPGK
notes: also called parental fusion protein; mouse fusion protein
Bovine collagen I
  EC50: 6.3 nM
CD133 protein [1]
  EC50: 0.21 nM
CD133 protein [2]
  IC50: 3.1 nM

B2: humanized fusion protein hscFv-lh-GPVI-Fc (Fc fusion)
chain: DIQMTQSPKSLSASVGDRVTITCKASENVDTYVSWYQQKPGKAPKVLIYGASNRYTGVPSRFTGSGSATDFTLTISSLQPEDFATYYCGQSYRYPLTFAQGTKVEIKGGGGSGGGGSGGGGSEVQLVQSGAEVKKPGASVKVSCKASGYSFTNYYVHWVKQAPGQGLEWMGYVDPFNGDFNYNQKFKDRVTLTVDTSTSTAYMELSSLTSEDRAVYYCARGGLDWYDTSYWYFDVWGQGTLVTVSSQSGPLPKPSLQALPSSLVPLEKPVTLRCQGPPGVDLYRLEKLSSSRYQDQAVLFIPAMKRSLAGRYRCSYQNGSLWSLPSDQLELVATGVFAKPSLSAQPGPAVSSGGDVTLQCQTRYGFDQFALYKEGDPAPYKNPERWYRASFPIITVTAAHSGTYRCYSFSSRDPYLWSAPSDPLELVVTGTSVTPSRLPTEPPSSVAEFSEATAELTVSFTNKVFTTETSRSITTSPKESDSPAGPARQYYTKGNGGRVECPPCPAPPVAGPSVFLFPPKPKDTLMISRTPEVTCVVVDVSHEDPEVQFNWYVDGVEVHNAKTKPREEQFNSTFRVVSVLTVVHQDWLNGKEYKCKVSNKGLPAPIEKTISKTKGQPREPQVYTLPPSREEMTKNQVSLTCLVKGFYPSDIAVEWESNGQPENNYKTTPPMLDSDGSFFLYSKLTVDKSRWQQGNVFSCSVMHEALHNHYTQKSLSLSPGK
Bovine collagen I
  EC50: 4.7 nM
CD133 protein [2]
  IC50: 2.7 nM

B3: W6B3H10 monoclonal antibody (antibody, V domains shown)
VH: EVQLQQSGPDLMKPGASVKISCKASGYSFTNYYVHWVKQSLDKSLEWIGYVDPFNGDFNYNQKFKDKATLTVDKSSSTAYMHLSSLTSEDSAVYYCARGGLDWYDTSYWYFDVWGAGTAVTVSS
VL: DILMTQSPKSMSMSLGERVTLSCKASENVDTYVSWYQQKPEQSPKVLIYGASNRYTGVPDRFTGSGSATDFSLTISNVQAEDLADYHCGQSYRYPLTFGAGTKLELK
notes: Mouse monoclonal antibody from hybridoma clone W6B3H10 (subclone of W6B3C1), with gamma heavy chain and kappa light chain; also called W6B3H10 mAb; parental mAb
CD133 protein [1]
  EC50: 0.12 nM

B4: phage clone 26 (humanized single chain antibody clone 26) (scFv)
scFv: DIQMTQSPKSLSASVGDRVTITCKASENVDTYVSWYQQKPGKAPKVLIYGASNRYTGVPSRFTGSGSATDFTLTISSLQPEDFATYYCGQSYRYPLTFAQGTKVEIKGGGGSGGGGSGGGGSEVQLVQSGAEVKKPGASVKVSCKASGYSFTNYYVHWVKQAPGQGLEWMGYVDPFNGDFNYNQKFKDRVTLTVDTSTSTAYMELSSLTSEDRAVYYCARGGLDWYDTSYWYFDVWGQGTLVTVSS
notes: not shown: fusion to the phage coat protein; display format not described
CD133 protein [3]
  Kd: 0.0213 nM
CD133 protein [4]
  Kd: 0.0182 nM
CD133 protein [5]
  Kd: 0.0322 nM

B5: phage clone 27 (humanized single chain antibody derived from phage clone 27) (scFv)
scFv: B4 scFv with A13M, T63S, Y87H, A99G, S199P, S210P, R213T
notes: as for B4
CD133 protein [6]
  Kd: 0.0508 nM

B6: phage clone 29 (humanized single chain antibody derived from phage clone 29) (scFv)
scFv: B4 scFv with K9R, A13V, A99G, S147C, F180L, R213T, D224H, W225C
notes: as for B4
CD133 protein [6]
  Kd: 0.103 nM

B7: phage m1h harboring the mouse single chain sequence (scFv)
scFv: DILMTQSPKSMSMSLGERVTLSCKASENVDTYVSWYQQKPEQSPKVLIYGASNRYTGVPDRFTGSGSATDFSLTISNVQAEDLADYHCGQSYRYPLTFGAGTKLELKGGGGSGGGGSGGGGSEVQLQQSGPDLMKPGASVKISCKASGYSFTNYYVHWVKQSLDKSLEWIGYVDPFNGDFNYNQKFKDKATLTVDKSSSTAYMHLSSLTSEDSAVYYCARGGLDWYDTSYWYFDVWGAGTAVTVSS
notes: also called phage harboring the original mouse single chain antibody; not shown: fusion to the phage coat protein; display format not described
CD133 protein [6]
  Kd: 0.0256 nM and 0.0269 nM
CD133 protein [3]
  Kd: 0.0185 nM
CD133 protein [4]
  Kd: 0.0174 nM

B8: single chain antibody scFv-lh (scFv, not shown: a dimerising Fc or GST)
scFv: B7 scFv
notes: Orientation light-heavy; Made in CHO cells and in E. coli (pET22b); also called mouse single chain antibody; parental mouse single chain antibody
CD133 protein [7]
  IC50: 3.1 nM
